B1: Untagged murine saposin A (SapA) [mouse] / His6-tagged murine β-galactocerebrosidase (GALC) [modified: glycosylated; glycosylated] [mouse] (parent)
chain 1: MGKSLPCDICKTVVTEAGNLLKDNATQEEILHYLEKTCEWIHDSSLSASCKEVVDSYLPVILDMIKGEMSNPGEVCSALNLCQSLQE
chain 2: YVLDDSDGLGREFDGIGAVSGGGATSRLLVNYPEPYRSEILDYLFKPNFGASLHILKVEIGGDGQTTDGTEPSHMHYELDENYFRGYEWWLMKEAKKRNPDIILMGLPWSFPGWLGKGFSWPYVNLQLTAYYVVRWILGAKHYHDLDIDYIGIWNERPFDANYIKELRKMLDYQGLQRVRIIASDNLWEPISSSLLLDQELWKVVDVIGAHYPGTYTVWNAKMSGKKLWSSEDFSTINSNVGAGCWSRILNQNYINGNMTSTIAWNLVASYYEELPYGRSGLMTAQEPWSGHYVVASPIWVSAHTTQFTQPGWYYLKTVGHLEKGGSYVALTDGLGNLTIIIETMSHQHSMCIRPYLPYYNVSHQLATFTLKGSLREIQELQVWYTKLGTPQQRLHFKQLDTLWLLDGSGSFTLELEEDEIFTLTTLTTGRKGSYPPPPSSKPFPTNYKDDFNVEYPLFSEAPNFADQTGVFEYYMNNEDREHRFTLRQVLNQRPITWAADASSTISVIGDHHWTNMTVQCDVYIETPRSGGVFIAGRVNKGGILIRSATGVFFWIFANGSYRVTADLGGWITYASGHADVTAKRWYTLTLGIKGYFAFGMLNGTILWKNVRVKYPGHGWAAIGTHTFEFAQFDNFRVEAAR

Variants of: B1
Assay: pull-down (immobilised GALC, Coomassie SDS-PAGE, quantified)
Conditions: with His6-tagged murine β-galactocerebrosidase (GALC) [modified: glycosylated, in the presence of Tween-20, n = 3, read off a plot

Row | ratio to parent | Variant
1 | 1.3 | chain 1 MGKSLPCDICKTVVTEAGNLLKDYATQEEILHYLEKTCEWIHDSSLSASCKEVVDSYLPVILDMIKGEMSNPGEVCSALNLCQSLQE [chain 1 N24Y]
